8 substances from US20250197476A1 can be followed below.

In assay [1] the target is Fc gamma receptors of human macrophages. Briefly: cytofluorometry, human macrophages with 5 µg/ml hybrid for 2 h at 37 °C, anti-Fc-FITC.
The target is the same in assay [2]. Briefly: cytofluorometry, human macrophages with 5 µg/ml hybrid for 20 h at 37 °C, anti-Fc-FITC.
Assay [3] deals with Fc gamma receptors of NK cells. Briefly: competition, cytofluorometry on NK cells; human IgG at 1 µg/ml against FcSDHFSTIE-N3-DBCO-A647 at 10 µg/ml.
Assay [4] has as its target Fc gamma receptors of NK cells. Briefly: competition, cytofluorometry on NK cells; human IgG at 10 µg/ml against FcSDHFSTIE-N3-DBCO-A647 at 10 µg/ml.
Assay [5] addresses Fc gamma receptors of NK cells. Briefly: competition, cytofluorometry on NK cells; human IgG at 100 µg/ml against FcSDHFSTIE-N3-DBCO-A647 at 10 µg/ml.
Assay [6] has as its target Fc gamma receptors of NK cells. Briefly: competition, cytofluorometry on NK cells; human IgG at 1000 µg/ml against FcSDHFSTIE-N3-DBCO-A647 at 10 µg/ml.
Assay [7] concerns the target Fc gamma receptors of NK cells. Briefly: competition, cytofluorometry on NK cells; human IgG at 10000 µg/ml against FcSDHFSTIE-N3-DBCO-A647 at 10 µg/ml.
In assay [8] the target is Fc gamma receptors of NK cells. Briefly: cytofluorometry, NK cells, 10 µg/ml, 30 min at 37 °C.
Assay [9] concerns the target Fc gamma receptors of NK cells. Briefly: cytofluorometry, NK cells, 10 µg/ml, no competing IgG (same values as Table 9).
In assay [10] the target is Fc gamma receptors of NK cells. Briefly: cytofluorometry, NK cells, 24 h at 37 °C.
Assay [11] concerns the target Fc gamma receptors of NK cells. Briefly: cytofluorometry, NK cells, 48 h at 37 °C.
Assay [12] deals with Fc gamma receptors of NK cells. Briefly: cytofluorometry, NK cells, 30 min at 37 °C.

With “FcLALAPG-N3-DBCO-β60-74Cit (from UniProt P01857 104-330)”, the fluorescence (Macrophages) was found to be 502 in assay [1] and 404 in assay [2].

Take human IgG (antibody): the MFI of FcSDHFSTIE-N3-DBCO-A647 with competing IgG in assay [3] was 37900; in assay [4], 38800; in [5], 36300; in [6], 29500; in assay [7], 20500. Also, the RATIO of FcSDHFSTIE-N3-DBCO-A647 with competing IgG was 179 in [3]; 183 in [4]; 171 in assay [5]; 139 in [6]; 96.6 in [7].

“FcWT-N3-DBCO-β60-74Cit (from UniProt P01857 104-330)”: the fluorescence (Macrophages) in assay [1] turned out to be 808; in assay [2] it was 1000.

For “FcSDHFSTIE-N3-DBCO-A647 (from UniProt P01857 104-330)”, the MFI in [8] and in assay [9] was 38500 each time.

As for “FcSDHFSTIE-N3-DBCO-β60-74Cit (from UniProt P01857 104-330)”, the fluorescence (Macrophages) in [1] is 1330; in [2], 1460.

Regarding “FcLALAPG-N3-DBCO-A647 (from UniProt P01857 104-330)”, the MFI in [8] amounted to 450.

For “FcSDHFSTIE-N3-DBCO-PEG3-β60-74cit-lysineA488 (from UniProt P01857 104-330)”, the MFI is 4090 in assay [10], 4340 in assay [11] and 4590 in assay [12].

Consider “FcSDHFSTIE-N3-DBCO-A488 (from UniProt P01857 104-330)”, for which the MFI in [10] was found to be 2350; in assay [11], 1710; in assay [12] it was 2970.
